Changes are numbered by the printed parent chain. Numbers in names are those of the source. Blank lines part the entries; values can stand above or below the molecule they belong to.
Tests used:
[1] = biological target: T1, endogenous CD73 activity in Calu-6 cells (Homo sapiens, UniProt P21589); experiment: Dual cell line HTRF cAMP assay (Calu-6 and HEK293/A2AR cells); assay type: cell-based; conditions: percentage of inhibition compared to 100 nM 11F11 set to 100%
T1 construct: Calu6 (CD73 endogenous expressors; human pulmonary adenocarcinoma cell line); endogenous in cells; host or cells: Calu6 (human pulmonary adenocarcinoma)
T1 sequence (P21589 27-549): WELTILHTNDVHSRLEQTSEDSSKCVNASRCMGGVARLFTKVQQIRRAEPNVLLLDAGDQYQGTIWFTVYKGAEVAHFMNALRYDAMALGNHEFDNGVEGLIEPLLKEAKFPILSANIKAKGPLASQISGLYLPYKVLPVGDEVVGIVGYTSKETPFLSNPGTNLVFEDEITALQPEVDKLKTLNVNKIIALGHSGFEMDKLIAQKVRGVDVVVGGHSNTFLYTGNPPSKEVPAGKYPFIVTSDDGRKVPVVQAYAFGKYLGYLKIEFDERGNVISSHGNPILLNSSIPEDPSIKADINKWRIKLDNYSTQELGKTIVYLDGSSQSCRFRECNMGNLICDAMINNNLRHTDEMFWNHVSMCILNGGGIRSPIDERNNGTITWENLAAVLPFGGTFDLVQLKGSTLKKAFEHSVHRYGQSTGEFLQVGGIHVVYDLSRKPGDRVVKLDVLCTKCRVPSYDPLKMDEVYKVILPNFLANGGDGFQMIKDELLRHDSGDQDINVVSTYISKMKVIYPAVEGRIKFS
Procedure: CD73 antibodies were serial diluted with PBS buffer containing 0.2% BSA, and plated 5 μl/well in 384 well white bottom proxiplate (PerkinElmer, Waltham, Mass.). Calu-6 cells were harvested and resuspend in PBS containing 0.2% BSA, then 5 μl of cells (300 cells/well) were added to the plate. The cells were incubated with antibodies for 10 minutes at 37° C. […] The cells were further incubated with AMP for 30 minutes at 37° C. During this time, HEK293/A2AR cells were harvested and diluted to 0.4 million/ml in PBS containing 0.2% BSA. They were added into the assay plate at 5 μl/well and continued to incubate at 37° C. for 1 hr. HRTF assays were performed using the homogenous time-resolved fluorescence (HTRF) HiRange cAMP detection kit (Cisbio, Bedford, Mass.) by adding 10 μl/well cAMP-conjugated d2 and 10μl/well europium cryptate conjugated anti-cAMP antibody in lysis buffer according to the manufacturer's instructions. Plates were incubated at room temperature for 60 minutes and Fluorescence Resonance Energy Transfer (FRET) signals (665 and 615 nM) were read using an EnVision plate reader (PerkinElmer, Waltham, Mass.). The FRET signal was calculated as the ratio of signal from the 665 nm (acceptor) and 615 nm (donor) channels and multiplied by 10,000. IC50 and Ymax were measured. […] All calculations were determined as a percentage of inhibition compared to this control, which was set to 100%.

[2] = tested on: hCD32a-H131, hCD32a-R131, hCD32b, hCD16a-V158, hCD64; experiment: BLI (Fortebio Octet) binding of FcgR analytes to antibodies captured from supernatants; design: species or system human
Procedure: (§1) The binding of antibodies to Fc gamma receptors (FcγRs or FcgRs) was studied using biosensor technologies including Biacore surface plasmon resonance (SPR) and Fortebio Biolayer Interferometry (BLI). SPR studies were performed on a Biacore T100 instrument (GE Healthcare) at 25° C. The Fab fragment from a murine anti-6×His antibody was immobilized on a CM5 sensor chip using EDC/NHS to a density of ˜3000 RU. Various his-tagged FcgRs (7 ug/ml) were captured via the C-terminal his-tag using a contact time of 30 s at 10 ul/min, and the binding of 1.0 μM antibody was evaluated in a running buffer of 10 mM NaPO4, 130 mM NaCl, 0.05% p20 (PBS-T) pH 7.1. FcgRs used for these experiments included CD64 (FcgRI), CD32a-H131 (FcgRIIa-H131), CD32a-R131 (FcgRIIa-R131), CD32b (FcgRIIb), CD16a-V158 (FcgRIIIa-V158), CD16b-NA1 (FcgRIIIb-NA1), and CD16B-NA2 (FcgRIIIb-NA2). BLI experiments were performed on a Fortebio Octet RED instrument (Pall, Fortebio) at 25° C. in 10 mM NaPO4, 130 mM NaCl, 0.05% p20 (PBS-T) pH 7.1. Antibodies were captured out of undiluted expression supernatants on protein A coated sensors, followed by the binding of 1 μM hCD32a-H131, hCD32a-R131, hCD32b, hCD16a-V158, or 0.1 μM hCD64 analytes.
The next set of constructs was used to engineer effector function into the otherwise effector function negative IgG2 isotype. […]

human FcγRs = experiment: SPR binding to human FcγRs (anti-his Fab captured FcgR-his proteins); conditions: 1.0 μM antibody
Procedure: Binding of the constructs to human FcγRs was measured via SPR. hCD64 and hCD32a-H131 binding data for IgG1.1 and IgG2 molecules were consistent with expected values for the different Fcs. IgG1.1f is the most inert Fc.
as §1, with “Antibodies were captured out of undiluted expression supernatants on protein A coated sensors, followed by the binding of 1 μM hCD32a-H131, hCD32a-R131, hCD32b, hCD16a-V158, or 0.1 μM hCD64 analytes.” left out

[3] = Differential scanning calorimetry, thermal stability of CD73 mAbs; assay type: physicochemical; conditions: PBS pH 7.1
Procedure: The thermal stability of CD73 mAbs were determined using a MicroCal Capillary DSC instrument (GE Healthcare). Antibodies were analyzed at a concentrations of 0.5-0.75 mg/ml in PBS pH 7.1. To stabilize the DSC instrument baseline and obtain a consistent thermal history, multiple scans of buffer alone in both the sample and reference cell were recorded prior to sample analysis. Sample scans contained mAb in the sample cell and PBS pH 7.1 in the reference cell. All scans were run from 10-110° C. at a scan rate of 60°/hr using a 5 minute pre-cycle thermostat period and no post-cycle thermostat period. Data (as shown in Table 15 below) were analyzed using MicroCal Origin Cap DSC analysis software. The appropriate buffer-buffer blank scans were subtracted from the sample-buffer data, and the transition midpoint temperature (Tm) values were determined by fitting the data to a non-2-state model. Tm1, Tm2 and Tm3 are the Tms for different domains in the antibodies.

CD73 on NCI-H292 cells = biological target: T2, CD73 on NCI-H292 cells (Homo sapiens, UniProt P21589); experiment: Flow cytometry based cross-blocking on NCI-H292 cells; assay type: binding; conditions: FITC-labeled 11F11, 10 ug/mL
T2 construct: maintenance of downregulation of endogenous CD73; endogenous in cells; host or cells: NCI-H292
T2 sequence (P21589 27-549): T1 sequence (P21589 27-549)
Procedure: The antibodies were also subjected to flow cytometry based cross-blocking. The experiment was conducted as follows using one set of labeled fluorescently labeled antibody and a second set of unlabeled antibody: 100000 NCI-H292 cells were seeded per well. The plate was spun down and the cells were resuspended in 100 uL 2% FBS in PBS per well. The cells were blocked on ice for 20 min. Unlabeled antibody, as indicated, in 2% FBS in PBS was added to each well. […] 6 wells of cells were incubated without antibody, and were resuspended in 100 uL 2% FBS in PBS only (for controls). The cells were then incubated on ice for 30 min. The cells were washed twice with 2% FBS in PBS and the samples were resuspended in 140 uL 2% FBS in PBS, and analyzed on a FacsCalibur flow cytometer (Becton Dickinson).

Molecule: Nc1ncnc2c1ncn2[C@@H]1O[C@H](COP(=O)(O)CP(=O)(O)O)[C@@H](O)[C@H]1O [APCP]
Ymax [1]: 97%

FcgR binding properties (BLI, supernatants) [2]: appreciable binding to only CD32a-H131
B1: IgG2.3: antibody with IgG2 constant region with C219S (protein)
constant: ASTKGPSVFPLAPCSRSTSESTAALGCLVKDYFPEPVTVSWNSGALTSGVHTFPAVLQSSGLYSLSSVVTVPSSNFGTQTYTCNVDHKPSNTKVDKTVERKSCVECPPCPAPPVAGPSVFLFPPKPKDTLMISRTPEVTCVVVDVSHEDPEVQFNWYVDGVEVHNAKTKPREEQFNSTFRVVSVLTVVHQDWLNGKEYKCKVSNKGLPAPIEKTISKTKGQPREPQVYTLPPSREEMTKNQVSLTCLVKGFYPSDIAVEWESNGQPENNYKTTPPMLDSDGSFFLYSKLTVDKSRWQQGNVFSCSVMHEALHNHYTQKSLSLSPGK
modifications: left off: another chain or arm of the molecule
notes: antibody with IgG2 constant region with C219S

B2: IgG2.3G1-AY-V27: IgG2.3G1-AY with S267E (protein)
chain: ASTKGPSVFPLAPCSRSTSESTAALGCLVKDYFPEPVTVSWNSGALTSGVHTFPAVLQSSGLYSLSSVVTVPSSNFGTQTYTCNVDHKPSNTKVDKTVERKSCVECPPCPAPELLGGPSVFLFPPKPKDTLMISRTPEVTCVVVDVEHEDPEVKFNWYVDGVEVHNAKTKPREEQYNSTYRVVSVLTVLHQDWLNGKEYKCKVSNKALPAPIEKTISKAKGQPREPQVYTLPPSREEMTKNQVSLTCLVKGFYPSDIAVEWESNGQPENNYKTTPPVLDSDGSFFLYSKLTVDKSRWQQGNVFSCSVMHEALHNHYTQKSLSLSPGK
modifications: Synthetic: IgG2.3G1-AY-V27
notes: IgG2.3G1-AY with S267E
FcgR binding properties (SPR) (human FcγRs): comparable FcgR binding properties to IgG1f and IgG1f-S267E

B3: IgG2.5G1-AY-V27: IgG2-B-form variant (C131S) hybrid with IgG1f, V27 (protein)
constant: B2 chain with C14S, S102C
modifications: left off: another chain or arm of the molecule
FcgR binding properties (SPR) (human FcγRs): IgG1f or modified IgG1f like effector functions

competition with 11F11 (CD73 on NCI-H292 cells): competes with 11F11
B4: 7A11: human anti-CD73 mAb, IgG1za, VK1; VH SEQ ID NO: 88, VL SEQ ID NO: 92 (antibody, V domains shown)
VH: EVQLVESGGGLVQTGRSLRLSCAASGFTFDDYAMHWVRQAPGKGLEWVSDISWNSDIIGYADSVKGRFTISRDNAKNSLYLQMNSLRAEDTALYYCAKDIYGSGSSFFDYWGQGILVTVSS
VL: DIQMTQSPSSLSASVGDRVTITCRASQYISSWLAWYQQKPEKAPKSLIYAASSLQSGVPSRFSGSGSGTDFTLTISSLQPEDFATYYCQQYHSYPPTFGQGTRLEIK
modifications: Synthetic: 7A11 VH; Synthetic: 7A11 VK1
DSC Tm1 (oC) [3]: 64.8 oC | DSC Tm2 (oC) [3]: 70.2 oC | DSC Tm3 (oC) [3]: 82.8 oC | DSC Tonset (oC) [3]: 56.0 oC
